The record followed here is the supplement of paper PMC12042874.

± gives the uncertainty stated by the source.

This data set is described as follows: amyloid nucleation score (Sup35N fusion, yeast selection) (log enrichment); library NNK3; higher = more nucleation; inactive = no reads after selection. In a few lines: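 Random libraries were run with three technical output replicates. In each, psi-negative yeast expressing Sup35N fused to peptides of 20 random codons were induced 24 hours with 100 μM copper sulfate and grown 7 days at 30°C on medium lacking adenine and uracil, and input and output plasmid inserts were Illumina-sequenced. The nucleation score is the DiMSum log enrichment of output over input reads, centred on the mode score of non-aggregating sequences, and sequences under 100 input reads were excluded.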
Consider YYQMRYCQWDAIQVENWVRR, for which the amyloid nucleation score result is “inactive”.
Consider LSNDYCLRWVFMFKVMIRCD, for which the amyloid nucleation score entry is “inactive”.
The result for CMRSESCVVPRNNKFFLLSG reads -0.361 ± 0.96.
The result for LRSVFSRYFGQVHEFSRQRY reads “inactive”.
The result for VTFMIDFRASWALFHDRWWC reads “inactive”; that for VLLPAGRIR, “inactive”.
NCVRFFYASDLSNYTRA: the amyloid nucleation score entry was “inactive”.
The result for NVMVISMMTSR reads “inactive”.
The figure for FSMAFYMYG is 0.163 ± 0.25.
The entry for TSCRLRV is “inactive”.
Take GYWGTLSERPYTELIAGTSI: the amyloid nucleation score entry was “inactive”.
The figure for IFVWGNNLTMSLSVFNNA is 2.58 ± 0.072; for PSTEI it is “inactive”; for GWHYMYSGYANYIGFSLPLY it is “inactive”.
For CKYSMRLDCLARNNDLKVLL, the amyloid nucleation score entry is “inactive”.
The result for GVFERR reads “inactive”; that for YNRKWDMQY, “inactive”.
CRISSPAGVNLLDSSRLSRL: the amyloid nucleation score entry was “inactive”.
The result for QFHYYVLMIRSVIPFIALWK reads “inactive”; that for KAPVVWYDMEARQKCVRGGG, “inactive”.
The figure for MVVTKLRRDVISQSRISMGW is 1.07 ± 0.1; for FLANPWCIVARLCSNHVIVH it is “inactive”.
HSWNKCDVYAWGLCTFISWC yielded an amyloid nucleation score of 0.987 ± 0.096.
The entry for ITTFVVMCDLVVLVC is “inactive”; for YHCAFVSINSECMVDGLTLC it is 0.883 ± 0.15; for REDILLRSSFSDSHVGRLKT it is “inactive”.
The result for LYVATS reads “inactive”.
For the substance GSMSLIYYGLRRKVMGYVLS, the amyloid nucleation score turned out to be 0.316 ± 0.7.
The result for SHGGYACTSLIMTLIPLLYM reads “inactive”.
The entry for RGRGAPCARFRNVYGMPFFY is “inactive”.
QCLQALNMKIVFDHVRFRVR: the amyloid nucleation score result is “inactive”.
The result for KYNAIVLVYPKSADCVKTLM reads 0.387 ± 0.36.
The result for CGWMTHSEL reads “inactive”; that for QCVCLS, “inactive”; that for PYTTLYSFRNC, “inactive”.
The entry for LFEWMRCMTVFMVGAAYAAT is “inactive”.
As to DACSVNEMSYVDTAGIWVWR, the amyloid nucleation score entry was “inactive”.
With YSANDLPVNAHGEILKVGLL, the amyloid nucleation score entry is “inactive”.
On to VAWRLFQNVWVHTGSDGYTV, for which the amyloid nucleation score is -0.601 ± 1.1.
In the case of YFAVMGGITLHLFAVIRSCL, the amyloid nucleation score result was “inactive”.
The figure for LNYGSDLDSIYYSFTL is -0.896 ± 0.96; for TELVLRAVSSLGVLVIFTTS it is “inactive”.
The figure for RGPFGLYSLDILLVSQVFRR is 0.502 ± 0.23.
The result for SFSSFVFTMEALASAVSTHH reads “inactive”; that for RNFMSFRWPVLKLQRRVP, “inactive”.
With PIMVRRHEGSH, the amyloid nucleation score result was “inactive”.
The figure for ILVVGALDLLCGVLTEYSCQ is 1.1 ± 0.1; for SVLRYE it is “inactive”; for MHNRLVNDPACPVSTSSL it is “inactive”.
The entry for QLSHKACLWLSCSSGIPLGS is “inactive”.
The entry for FIMNARGVPLEGWWSDGSDK is “inactive”; for SFHTHRGYNG it is “inactive”.
IYRTPSADDLSRDAYIGFYR: the amyloid nucleation score result was “inactive”.
The result for LLLGDVVVMTEAYYIMSPVP reads “inactive”; that for VRDIRAIL, -0.551 ± 1.1; that for MIVWTHNYLEGELFVSLPLV, “inactive”.
The entry for SFSCMKDSGPNMCKGLRVKQ is “inactive”; for GHWTLDYEFKYPYGQQYHVP it is “inactive”.
Turning to RLRVM, the amyloid nucleation score result is “inactive”.
As for FRYNDFMRD, the amyloid nucleation score entry is “inactive”.
The result for LISCAMGRELTYRSNSRRGR reads “inactive”; that for LLSFLTVRLCVFRTYFW, “inactive”.
Consider RVRCDWCFGRGVCMTAIRQD, for which the amyloid nucleation score was -0.147 ± 1.1.
The result for EQVFRYIL reads “inactive”; that for NFWVIPQ, “inactive”; that for CKFEMSEIDFVYASSIFR, “inactive”.
For the substance LLMLCRCKPYFFGFYLCWFR, the amyloid nucleation score entry was “inactive”.
The result for RNWCSLNNLFYPWV reads 1.78 ± 0.12; that for GVWKEHVTRAAVVSWKEGVN, “inactive”; that for ARWNAI, “inactive”.
The entry for FICFFGYS is “inactive”.
For SFSIDLMTSLSWHLLSCRTF, the amyloid nucleation score entry was “inactive”.
The result for VELSNVFWGERYIKGLLTDL reads “inactive”; that for CCMYMISCRDN, “inactive”.
The result for LLDFVNGFYCFDFTGTFNIY reads 0.993 ± 0.15; that for LEGGSITCLSPC, “inactive”.
The entry for MVVLRAVEQLGVRNNDYHS is “inactive”; for GAMWLSCT it is “inactive”; for CDTSFKIDELPYSASLHFAF it is “inactive”.
For the substance IMVRSIISGFRLMESRKLDS, the amyloid nucleation score result was “inactive”.
QVGSRRNSS: the amyloid nucleation score entry is “inactive”.
The result for RSTRIGLIYYMGMSATCTWG reads “inactive”; that for RCVSMEADWVVSAEFTKDVF, “inactive”; that for ASRSMTGSLCLFAFMV, “inactive”.
The entry for TWRYRKMYYRSDVNHCLFEV is “inactive”; for YSGFSYVRGLYGSGYVMAQP it is -0.192 ± 0.52.
As for LWLMVFWKINGNMLGCHPEM, the amyloid nucleation score result is “inactive”.
The result for MFCDLINESSHCCEATLECN reads “inactive”; that for GWMNACT, 0.356 ± 0.34.
In the case of GGSSYTYHNSVDLLDWFCYV, the amyloid nucleation score amounted to 1.23 ± 0.11.
The result for PQIVFRFDNIDQ reads “inactive”.
The figure for CVVTGMMYTVFDKAFCFNAS is 1.89 ± 0.11; for IFWSFTGT it is “inactive”; for CTVGIYLLNLC it is 2.45 ± 0.084.
For CTNKSSVYEFCYCVADMANV, the amyloid nucleation score result was “inactive”.
The entry for FMVMRVPRCPVDCNVPGGIN is “inactive”; for RNMNLLSMHIGLISLFSGEL it is 1.81 ± 0.056.
The result for TDSCKGVWIMVGFALFLMWS reads “inactive”; that for CSQIPLHKLTMCMLY, “inactive”; that for DKWSWSVCNIRLSKSCNPVT, “inactive”.
The entry for GFAYESQAA is “inactive”.
VEIGCANSRWDLLGVVCCLG showed an amyloid nucleation score of 1.27 ± 0.17.
The result for TQYMWAYPNND reads 1.18 ± 0.16; that for FAIFGSWPKFFSCTP, 0.378 ± 0.41.
The result for WKNNRLNIIYQPLLGTQICK reads “inactive”; that for CNTGPEIMASVAKVDVWVIK, 1.65 ± 0.11.
The result for SSTRIMNISVSRWSEMDKPD reads “inactive”; that for GCHLVSCRRTGAL, “inactive”; that for LMGLCTLI, “inactive”.
Regarding ISAGNTRSTYRLGSWDTSRE, the amyloid nucleation score result was “inactive”.
The result for GMDCNKIRLASSWVYYLTSE reads “inactive”.
The result for IYIFGFQTVCNSLIGGLSIA reads “inactive”.
The result for PSHTLRNTSLSMSVSTTHKA reads “inactive”; that for SDCKMISHFGEVINILSYKI, “inactive”.
In turn, LFASWEDFLASSRYWRLEKR returned an amyloid nucleation score of 0.356 ± 0.39.
As for CFFIVGLARIFGLVPVA, the amyloid nucleation score was found to be 0.804 ± 0.12.
The entry for FFWVMISGVFLRRIHDSRSA is “inactive”; for TIFVVCIRIFVWFLCYGSDP it is 0.207 ± 0.23; for VKLRPLCAVKIRRYLYVVRE it is -0.054 ± 0.3.
The figure for KQCIFNISLCSS is 0.008 ± 0.42; for IALTWDSVIYSTYLGVNFLT it is 0.627 ± 0.23; for AISYYYEHARLGWYGVELRP it is “inactive”.
The entry for WYSNYCMIDRHGVFEVVSCM is “inactive”; for LYSLT it is “inactive”; for YSCLLIYVKYGMASIYGRMF it is “inactive”.
As for SDFEAFSFGDNMVFLIEMEG, the amyloid nucleation score entry was “inactive”.
Turning to RLFFVSMAF, the amyloid nucleation score entry is “inactive”.
On to TCKVVCRFFHIRACMLGVIL, for which the amyloid nucleation score entry is “inactive”.
The result for SFRFWSFYTCGEYKWDGTKG reads “inactive”; that for IVAGVMADNDIRQDCAWKFK, 1.34 ± 0.12.
GFFFSLFYWNHFRGMTRQRF gave an amyloid nucleation score of 0.973 ± 0.2.
The result for FFMEIKYGWKV reads 0.898 ± 0.12.
